Test results published in paper doi:10.1101/2023.01.11.523539.

Assays:
Experiment in all cases: two-hybrid
[1] = biological target: BD-MLA13 (wild-type MLA13 fused N-terminally to the LexA binding domain) (barley)
[2] = biological target: BD-MLA13^D2A_E17A (α1-helix mutant of MLA13 fused N-terminally to the LexA binding domain) (barley)
[3] = biological target: BD-MLA13^F99E (CC domain mutant of MLA13 fused N-terminally to the LexA binding domain) (barley)

“AD-AVRA13-V2 (AVRA13-V2 lacking signal peptide, fused N-terminally to the B42 activation domain and 1xHA) (natural protein)” gave a lowest dilution of yeast with growth without leucine [1] of 0.001 OD600, a lowest dilution of yeast with growth without leucine [2] of 0.01 OD600 and a lowest dilution of yeast with growth without leucine [3] of 0.01 OD600.
